Test results from the supplement of paper PMC7125110.
± gives the standard error. For some assays here: This sample holds only a part of the variants without activity.

B1: glmS ribozyme (parent)
chain: AUAAAAGCGCCAGAACUACAGAAAUGUAGUUGACGAGGAGGAGGUUUAUCGAAUUUUCGGCGGAUGCCUCCAAA

Key:
Conditions in all cases: with glucosamine-6-phosphate
glucosamine-6-phosphate [1] = variants of: B1; assay: kcat; higher = faster cleavage; RNA array
In short: (§1)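 Using a hybridised Cy3 probe at 37 °C, barcoded ribozyme variants transcribed in situ by E. coli RNA polymerase on sequenced MiSeq chips were monitored across tiles imaged over ~14 h. The flow contained glucosamine-6-phosphate from 40 μM to 10 mM in HEPES/KCl/Mg(OAc)2 buffer. Signals were normalised to baseline and to non-cleaving reference variants before per-tile medians were fit to one- or two-exponential decays to yield kobs. Weighted Michaelis–Menten fits across concentrations gave kcat and KM.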

glucosamine-6-phosphate [2] = variants of: B1; assay: self-cleavage kobs at 160 uM GlcN6P; higher = faster cleavage; RNA array
In short: as §1

glucosamine-6-phosphate [3] = variants of: B1; assay: self-cleavage kobs at 2500 uM GlcN6P; higher = faster cleavage; RNA array
In short: as §1

glucosamine-6-phosphate [4] = variants of: B1; assay: KM; higher = weaker cofactor use; RNA array
In short: as §1

glucosamine-6-phosphate [5] = variants of: B1; assay: self-cleavage kobs at 640 uM GlcN6P; higher = faster cleavage; RNA array
In short: as §1

glucosamine-6-phosphate [6] = variants of: B1; assay: self-cleavage kobs at 10000 uM GlcN6P; higher = faster cleavage; RNA array
In short: as §1

glucosamine-6-phosphate [7] = variants of: B1; assay: self-cleavage kobs at 40 uM GlcN6P; higher = faster cleavage; RNA array
In short: as §1

Row | Variant | kcat (glucosamine-6-phosphate [1]) | self-cleavage kobs at 160 uM GlcN6P (glucosamine-6-phosphate [2]) | self-cleavage kobs at 2500 uM GlcN6P (glucosamine-6-phosphate [3]) | KM (glucosamine-6-phosphate [4]) | self-cleavage kobs at 640 uM GlcN6P (glucosamine-6-phosphate [5]) | self-cleavage kobs at 10000 uM GlcN6P (glucosamine-6-phosphate [6]) | self-cleavage kobs at 40 uM GlcN6P (glucosamine-6-phosphate [7])
1 | U31G G66U U69G | 4.42e-05 ± 1.3e-05 s⁻¹ | 6.31e-05 ± 2.1e-05 s⁻¹ | 6.07e-05 ± 1.6e-05 s⁻¹ |  |  |  | 
2 | G32A G40U | 0.00051 ± 0.0001 s⁻¹ |  | 0.000169 ± 2.5e-05 s⁻¹ | 3900 ± 1200 µM | 7.8e-05 ± 9.2e-06 s⁻¹ | 0.000401 ± 5.6e-05 s⁻¹ | 
3 | G32A G40A | 0.000781 ± 2.4e-05 s⁻¹ | 5.38e-05 ± 1.8e-05 s⁻¹ | 0.000414 ± 6.4e-05 s⁻¹ | 2220 ± 130 µM | 0.000175 ± 3.4e-05 s⁻¹ | 0.000639 ± 8.9e-05 s⁻¹ | 
4 | U31G U69G | 5.43e-05 ± 8.8e-06 s⁻¹ | 9.12e-05 ± 1.7e-05 s⁻¹ | 5.24e-05 ± 7.9e-06 s⁻¹ |  | 5.73e-05 ± 1.2e-05 s⁻¹ | 4.43e-05 ± 1e-05 s⁻¹ | 
5 | A33U U45A | 0.000201 ± 3.4e-05 s⁻¹ |  | 7.97e-05 ± 1.2e-05 s⁻¹ | 4400 ± 1700 µM |  | 0.000137 ± 1.5e-05 s⁻¹ | < 1e-05 s⁻¹
6 | A33U U55G | 0.000103 ± 1e-05 s⁻¹ |  | 5.38e-05 ± 7.7e-06 s⁻¹ | 1990 ± 570 µM | 3.4e-05 ± 1.3e-05 s⁻¹ | 8.77e-05 ± 1e-05 s⁻¹ | 
7 | A33U U55C | 0.000106 ± 1.2e-05 s⁻¹ |  | 3.12e-05 ± 5.7e-06 s⁻¹ | 6170 ± 1300 µM |  | 6.51e-05 ± 7.8e-06 s⁻¹ | < 1e-05 s⁻¹
8 | A33G C58G | < 1e-05 s⁻¹ |  |  |  |  | < 1e-05 s⁻¹ | 
9 | C34A C67G | < 1e-05 s⁻¹ | < 1e-05 s⁻¹ | < 1e-05 s⁻¹ |  | < 1e-05 s⁻¹ |  | < 1e-05 s⁻¹
10 | G32U C67U | 0.00034 ± 4.6e-05 s⁻¹ |  | 0.000166 ± 2.2e-05 s⁻¹ | 1790 ± 580 µM | 0.000104 ± 1.3e-05 s⁻¹ | 0.000303 ± 2.5e-05 s⁻¹ | 
11 | U31G U56C | 0.000772 ± 3.5e-05 s⁻¹ | 4.9e-05 ± 1.7e-05 s⁻¹ | 0.000413 ± 0.00012 s⁻¹ | 2210 ± 180 µM | 0.000179 ± 2.9e-05 s⁻¹ | 0.000628 ± 9.2e-05 s⁻¹ | 
12 | A33C A53U | 0.000206 ± 3.2e-05 s⁻¹ |  | 0.000246 ± 5.8e-05 s⁻¹ |  | 7.53e-05 ± 1.6e-05 s⁻¹ | 0.000182 ± 1.9e-05 s⁻¹ | 
13 | G32U G66A | 0.000468 ± 5.1e-05 s⁻¹ |  | 0.00021 ± 2.9e-05 s⁻¹ | 3020 ± 560 µM | 8.47e-05 ± 1e-05 s⁻¹ | 0.000358 ± 4.3e-05 s⁻¹ | 
14 | G32U G66U | 9.79e-05 ± 9.9e-06 s⁻¹ |  |  | 7290 ± 1700 µM |  | 5.66e-05 ± 1.4e-05 s⁻¹ | 
15 | G32U G66C | 5.37e-05 ± 2.7e-06 s⁻¹ |  |  | 7240 ± 850 µM |  | 3.11e-05 ± 1.2e-05 s⁻¹ | < 1e-05 s⁻¹
16 | U31G A42U | 5.2e-05 ± 1.3e-05 s⁻¹ |  | 2.29e-05 ± 1.1e-05 s⁻¹ |  |  | 4.27e-05 ± 1.1e-05 s⁻¹ | 
17 | G32U U46A | 0.000102 ± 7.4e-06 s⁻¹ |  | 3.94e-05 ± 1.1e-05 s⁻¹ | 4100 ± 670 µM |  | 7.21e-05 ± 1.5e-05 s⁻¹ | 

Row | Variant | kcat (glucosamine-6-phosphate [1]) | self-cleavage kobs at 160 uM GlcN6P (glucosamine-6-phosphate [2]) | self-cleavage kobs at 2500 uM GlcN6P (glucosamine-6-phosphate [3]) | KM (glucosamine-6-phosphate [4]) | self-cleavage kobs at 640 uM GlcN6P (glucosamine-6-phosphate [5]) | self-cleavage kobs at 10000 uM GlcN6P (glucosamine-6-phosphate [6]) | self-cleavage kobs at 40 uM GlcN6P (glucosamine-6-phosphate [7])
18 | G32U U46G | 0.000316 ± 0.00012 s⁻¹ |  | 6.3e-05 ± 1.1e-05 s⁻¹ |  | 4.52e-05 ± 1.5e-05 s⁻¹ | 0.000169 ± 2e-05 s⁻¹ | 
19 | G32A G44A | 6.55e-05 ± 1.7e-05 s⁻¹ |  |  |  |  |  | 
20 | U31G C70G | 0.000132 ± 1.8e-05 s⁻¹ | 5.51e-05 ± 2.2e-05 s⁻¹ | 0.000118 ± 3.1e-05 s⁻¹ | 595 ± 260 µM | 6.05e-05 ± 1.2e-05 s⁻¹ | 0.000126 ± 1.8e-05 s⁻¹ | 
21 | A33U A52U | 1.29e-05 ± 2.5e-06 s⁻¹ |  |  | 8300 ± 3400 µM |  |  | 
22 | A33U A52G | 3.65e-05 ± 1.3e-05 s⁻¹ |  |  |  |  | 1.94e-05 ± 7.9e-06 s⁻¹ | 
23 | U31G G37A | 0.00148 ± 0.00038 s⁻¹ | 6.42e-05 ± 1.6e-05 s⁻¹ | 0.000466 ± 7.3e-05 s⁻¹ | 5250 ± 1900 µM | 0.000144 ± 2.8e-05 s⁻¹ | 0.000999 ± 0.00019 s⁻¹ | 
24 | U31G U46C | 0.000896 ± 0.00013 s⁻¹ | 7.33e-05 ± 1.5e-05 s⁻¹ | 0.000592 ± 0.00011 s⁻¹ | 1720 ± 420 µM | 0.00021 ± 6.8e-05 s⁻¹ | 0.000731 ± 0.00014 s⁻¹ | 3.68e-05 ± 1.6e-05 s⁻¹
25 | A33U A53U | 4.9e-05 ± 3.4e-06 s⁻¹ | < 1e-05 s⁻¹ | 2.34e-05 ± 1e-05 s⁻¹ | 2490 ± 550 µM |  | 3.95e-05 ± 9.4e-06 s⁻¹ | < 1e-05 s⁻¹
26 | U31G A36C | < 1e-05 s⁻¹ | < 1e-05 s⁻¹ |  |  |  | < 1e-05 s⁻¹ | 
27 | U31G A36U | < 1e-05 s⁻¹ |  |  |  | < 1e-05 s⁻¹ | < 1e-05 s⁻¹ | 
28 | A33G A64G | < 1e-05 s⁻¹ |  |  | 484 ± 28 µM |  | < 1e-05 s⁻¹ | < 1e-05 s⁻¹
29 | A33G G38C | < 1e-05 s⁻¹ | < 1e-05 s⁻¹ |  |  |  |  | < 1e-05 s⁻¹
30 | U31G G66U | 0.000571 ± 6e-05 s⁻¹ | 2.77e-05 ± 1e-05 s⁻¹ | 0.00029 ± 4.4e-05 s⁻¹ | 2410 ± 400 µM | 0.000126 ± 1.5e-05 s⁻¹ | 0.000452 ± 8e-05 s⁻¹ | 
31 | U31G G40C | 0.00108 ± 0.00013 s⁻¹ | 0.000124 ± 2e-05 s⁻¹ | 0.000864 ± 0.00017 s⁻¹ | 1280 ± 250 µM | 0.000397 ± 5.8e-05 s⁻¹ | 0.0009 ± 0.00012 s⁻¹ | 2.49e-05 ± 8e-06 s⁻¹
32 | A33C U54C | 0.00039 ± 4.2e-05 s⁻¹ |  | 0.000217 ± 3.9e-05 s⁻¹ | 1950 ± 360 µM | 0.0001 ± 1.7e-05 s⁻¹ | 0.000325 ± 9.2e-05 s⁻¹ | 
33 | G32U A36C | < 1e-05 s⁻¹ |  | < 1e-05 s⁻¹ |  |  | < 1e-05 s⁻¹ | 
